Usually EC50 (read off the curve) stands for the concentration giving half of the maximal effect. By Kd is commonly meant the concentration at which binding is half-saturated. What is called koff is the first-order rate constant of dissociation. Broadly, the kon is the second-order rate constant of association.

Experimental findings from patent US20230257479A1 (Genmab, published 2023) are described below.

Assay [1] concerns the target T1, human 5T4 with L281 mutated to alanine, on HEK293 cells (human, UniProt Q13641 32-420).
T1 sequence: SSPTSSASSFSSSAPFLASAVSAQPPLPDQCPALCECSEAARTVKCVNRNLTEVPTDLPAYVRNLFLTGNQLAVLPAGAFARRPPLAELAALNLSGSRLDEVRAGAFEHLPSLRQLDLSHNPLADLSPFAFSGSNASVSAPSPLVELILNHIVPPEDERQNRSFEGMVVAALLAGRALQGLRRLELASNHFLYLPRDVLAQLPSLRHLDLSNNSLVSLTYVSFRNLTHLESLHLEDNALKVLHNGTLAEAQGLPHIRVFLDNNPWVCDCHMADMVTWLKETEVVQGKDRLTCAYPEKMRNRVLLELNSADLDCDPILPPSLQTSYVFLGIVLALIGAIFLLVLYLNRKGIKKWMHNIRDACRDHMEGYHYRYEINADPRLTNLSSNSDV
Description: alanine scanning, flow cytometry on HEK293 cells, normalised to bsIgG1-5T4-A1-F405Lxb12-FEAR-FITC. For orientation: In flow cytometry, cells or beads pass a laser one at a time.

Assay [2] has as its target T2, human 5T4 with P326 mutated to alanine, on HEK293 cells (human, UniProt Q13641 32-420).
T2 sequence: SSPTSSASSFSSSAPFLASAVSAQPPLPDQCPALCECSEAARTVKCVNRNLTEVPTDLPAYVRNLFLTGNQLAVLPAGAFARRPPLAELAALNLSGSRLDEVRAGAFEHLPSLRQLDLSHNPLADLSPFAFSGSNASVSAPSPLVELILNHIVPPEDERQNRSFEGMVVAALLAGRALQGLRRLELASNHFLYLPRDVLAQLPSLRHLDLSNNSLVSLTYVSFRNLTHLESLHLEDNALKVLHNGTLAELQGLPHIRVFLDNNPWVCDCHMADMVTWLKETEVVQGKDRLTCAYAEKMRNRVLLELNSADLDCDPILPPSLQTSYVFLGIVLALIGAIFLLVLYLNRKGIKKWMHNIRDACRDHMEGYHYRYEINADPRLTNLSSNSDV
Described as above.

Assay [3] concerns the target T3, human 5T4 with L309 mutated to alanine, on HEK293 cells (human, UniProt Q13641 32-420).
T3 sequence: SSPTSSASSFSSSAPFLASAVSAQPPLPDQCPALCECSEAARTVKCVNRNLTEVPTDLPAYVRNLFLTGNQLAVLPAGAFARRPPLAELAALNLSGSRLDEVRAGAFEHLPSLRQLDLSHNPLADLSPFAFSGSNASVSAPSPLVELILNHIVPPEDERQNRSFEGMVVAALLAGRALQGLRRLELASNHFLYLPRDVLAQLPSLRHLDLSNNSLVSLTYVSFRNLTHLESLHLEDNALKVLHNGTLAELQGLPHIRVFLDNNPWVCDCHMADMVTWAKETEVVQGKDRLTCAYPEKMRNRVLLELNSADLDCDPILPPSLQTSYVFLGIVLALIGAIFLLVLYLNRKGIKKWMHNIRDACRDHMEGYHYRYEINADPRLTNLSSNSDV
Described as above.

Assay [4] addresses T4, full length human 5T4 (SEQ ID NO: 1) on cells (human, UniProt Q13641 32-420).
T4 construct: Uniprot Q13641; residues 1-31 are the signal peptide; Used both for transfected HEK-293 cells and for 5T4-expressing human tumor cell lines
T4 sequence: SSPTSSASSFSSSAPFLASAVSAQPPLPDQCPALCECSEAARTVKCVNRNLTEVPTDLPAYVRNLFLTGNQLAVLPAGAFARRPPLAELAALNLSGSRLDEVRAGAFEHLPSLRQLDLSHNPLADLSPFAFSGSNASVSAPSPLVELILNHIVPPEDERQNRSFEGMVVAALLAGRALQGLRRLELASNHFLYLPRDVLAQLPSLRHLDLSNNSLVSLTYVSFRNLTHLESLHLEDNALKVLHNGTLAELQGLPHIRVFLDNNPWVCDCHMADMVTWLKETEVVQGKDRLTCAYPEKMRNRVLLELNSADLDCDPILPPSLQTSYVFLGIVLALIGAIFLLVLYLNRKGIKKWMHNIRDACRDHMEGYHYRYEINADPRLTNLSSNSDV
In words: flow cytometry, HEK-293 cells transfected with human 5T4, PE secondary [II)G].

The target in assay [5] is T4, full length human 5T4 (SEQ ID NO: 1) on …. Description: flow cytometry, MDA-MB-231 cells, PE secondary [III)F].
Assay [6] concerns the target T5, recombinant cynomolgus monkey 5T4 protein (Cusabio; cat. no. CSB-MP024093MOV) (cynomolgus monkey, UniProt Q4R8Y9 35-355).
T5 construct: extracellular domain; Bought protein; also called cynomolgus 5T4; cynomolgus monkey 5T4 extracellular domain
T5 sequence (looked up): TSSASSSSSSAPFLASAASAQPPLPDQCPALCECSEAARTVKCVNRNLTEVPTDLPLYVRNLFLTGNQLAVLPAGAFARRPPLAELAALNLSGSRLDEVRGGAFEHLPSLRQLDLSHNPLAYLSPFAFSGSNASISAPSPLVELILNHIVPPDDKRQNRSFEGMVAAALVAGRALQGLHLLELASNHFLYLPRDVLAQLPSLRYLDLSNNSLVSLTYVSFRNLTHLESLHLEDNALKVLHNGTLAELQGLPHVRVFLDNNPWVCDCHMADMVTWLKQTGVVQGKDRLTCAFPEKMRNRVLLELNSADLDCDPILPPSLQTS
In words: BLI, antibody on anti-human IgG Fc Capture biosensor, antigen in solution; 50 s dissociation window.

Assay [7] has as its target T6, full length cynomolgus monkey 5T4 on transfected HEK-293 cells (cynomolgus monkey, UniProt Q4R8Y9 35-420).
T6 construct: Uniprot Q4R8Y9; residues 1-34 are the signal peptide; also called cynomolgus 5T4
T6 sequence: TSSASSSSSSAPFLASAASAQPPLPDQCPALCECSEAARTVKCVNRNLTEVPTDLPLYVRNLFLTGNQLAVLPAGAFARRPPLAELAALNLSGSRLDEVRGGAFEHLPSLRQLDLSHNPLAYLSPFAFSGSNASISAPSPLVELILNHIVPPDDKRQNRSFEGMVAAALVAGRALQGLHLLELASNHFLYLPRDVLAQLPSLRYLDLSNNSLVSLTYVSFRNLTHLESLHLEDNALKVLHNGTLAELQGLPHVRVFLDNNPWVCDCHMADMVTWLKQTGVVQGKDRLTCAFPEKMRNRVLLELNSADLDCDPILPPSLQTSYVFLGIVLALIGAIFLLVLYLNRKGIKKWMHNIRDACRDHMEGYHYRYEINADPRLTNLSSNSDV
Description: flow cytometry, HEK-293 cells transfected with cynomolgus monkey 5T4, PE secondary [II)G].

The target in assay [8] is T7, human 5T4ECDHis (mature protein of SEQ ID NO: 99) (human, UniProt Q13641 32-355).
T7 construct: ECD of human 5T4 (aa 1-355 of Uniprot Q13641) with C-terminal His tag; residues 1-31 are the signal peptide; also called ECD of human 5T4 with a C-terminal His tag
T7 sequence: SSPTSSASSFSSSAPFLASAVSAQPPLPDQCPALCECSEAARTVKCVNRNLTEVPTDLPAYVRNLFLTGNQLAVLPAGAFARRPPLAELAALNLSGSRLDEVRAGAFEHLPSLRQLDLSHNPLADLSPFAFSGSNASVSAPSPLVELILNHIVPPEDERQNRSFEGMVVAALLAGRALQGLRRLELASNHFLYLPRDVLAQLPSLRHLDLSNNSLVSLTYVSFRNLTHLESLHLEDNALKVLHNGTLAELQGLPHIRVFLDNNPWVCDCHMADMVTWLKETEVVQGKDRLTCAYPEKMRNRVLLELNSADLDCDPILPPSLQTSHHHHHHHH
In words: BLI, antibody on anti-human IgG Fc Capture biosensor, antigen in solution; 50 s dissociation window. On the technique in general: In BLI a coated tip is dipped into the sample, and binding shifts an interference pattern.

In assay [9] the target is T7, human 5T4ECDHis (mature protein of SEQ …). In words: BLI cross-block; competitor (immobilised): IgG1-5T4-A1-F405L.
The target is the same in assay [10]. In words: BLI cross-block; competitor (immobilised): IgG1-5T4-207-FEAR.
Assay [11] shares this target. In words: BLI cross-block; competitor (immobilised): IgG1-5T4-106-FEAR.
The target is the same in assay [12]. Description: BLI cross-block; competitor (immobilised): IgG1-5T4-085-FEAR.
The target is the same in assay [13]. In words: BLI cross-block; competitor (immobilised): IgG1-5T4-H8-FEAR.
Assay [14] shares this target. Description: BLI cross-block; competitor (immobilised): IgG1-5T4-127-FEAR.
For assay [15] the target is unchanged. Description: BLI cross-block; competitor (immobilised): IgG1-5T4-A3-F405L.
For assay [16] the target is unchanged. Description: BLI cross-block; competitor (immobilised): IgG1-5T4-059-FEAR.
The target is the same in assay [17]. Description: BLI cross-block; competitor (immobilised): IgG1-5T4-076-FEAR.
For assay [18] the target is unchanged. In words: BLI cross-block; competitor (immobilised): IgG1-5T4-226-FEAR.

B1: bsIgG1-b12-FEALx5T4-226-FEAR-FITC (bispecific antibody, V domains shown)
VH 1: QVQLVQSGAEVKKPGASVKVSCQASGYRFSNFVIHWVRQAPGQRFEWMGWINPYNGNKEFSAKFQDRVTFTADTSANTAYMELRSLRSADTAVYYCARVGPYSWDDSPQDNYYMDVWGKGTTVIVSS
VL 1: EIVLTQSPGTLSLSPGERATFSCRSSHSIRSRRVAWYQHKPGQAPRLVIHGVSNRASGISDRFSGSGSGTDFTLTITRVEPEDFALYYCQVYGASSYTFGQGTKLERK
VH 2: QVQLQQWGAGLLKPSETLSLTCAVYGGSFSGYYWSWIRQPPGKGLEWIGEIDHSGSTNYNPSLKSRVTISVDTSKNQFSLKLSSVTAADTAVYYCAAWFGELWDYYYGMDVWGQGTTVTVSS
VL 2: EIVLTQSPATLSLSPGERATLSCRASQSVSSFLAWYQQKPGQAPRLLIYDASNRATGIPARFSGSGSGTDFTLTISSLEPEDFAVYYCQQRSNWPLTFGQGTRLEIK
notes: b12 arm IgG1 FEAL, 5T4 arm IgG1 FEAR
Consider B1, for which the “Z-score (fold change) of binding” value in [1] was -1.65; in assay [2], -1.67; in assay [3] it was -1.63.

B2: IgG1-5T4-127-FEAR (antibody, V domains shown)
VH: EVQLLESRGGLVQPGGSLRLSCAASGFTFSSYAMSWVRQAPGKGLEWVSTISGSGGSTYYADSVKGRFTISRDNSKKTLYLQMNSLRAEDTAVYYCAKDWGSGSYPAEYFQHWGQGTLVTVSS
VL: EIVLTQSPATLSLSPGERATLSCRASQSVSSYLAWYQQKPGQAPRLLIYDASNRATGIPARFSGSGSGTDFTLTISSLEPEDFAVYYCQQRSNWLMYTFGQGTKLEIK
notes: Monospecific, bivalent human IgG1 kappa with L234F, L235E, D265A, K409R (FEAR)
As to B2, the “EC50 (read off the curve)” value was approximately 0.03 µg/mL in assay [4], approximately 0.03 µg/mL in assay [5] and approximately 0.02 µg/mL in assay [7]. Besides, the Kd came out at 41 nM in [6] and 27 nM in [8]. Also, the koff stood at 0.015 s⁻¹ in assay [6] and 0.016 s⁻¹ in assay [8]. In addition, the kon in assay [6] amounted to 370000 M⁻¹ s⁻¹; in [8], 580000 M⁻¹ s⁻¹. The corrected association response in [9] was 0.87 nm; in assay [10] it was 1.29 nm; in assay [11] it was -0.02 nm; in assay [12], 0 nm; in assay [13], -0.01 nm; in assay [14], -0.01 nm. Moreover, the corrected association response in assay [15] was 0.01 nm; in assay [16] it was -0.1 nm; in assay [17], -0.02 nm; in [18] it was 1.51 nm.
